Publication PMC3851687 (2013)

What was measured:
[1] = target: T1, humanized dPHD-HD1 (Pygo PHD F773W in complex with Lgs HD1) (Drosophila, UniProt Q9V9W8 747-804; Q961D9 321-353, F773W); assay: ITC; linked PHD-HD1 complex (uncleaved linker)
T1 sequence 1: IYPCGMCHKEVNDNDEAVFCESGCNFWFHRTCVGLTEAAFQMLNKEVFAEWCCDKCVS
T1 sequence 2: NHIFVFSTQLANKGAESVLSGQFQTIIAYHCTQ

[2] = target: T1, humanized dPHD-HD1 (Pygo PHD F773W in …); assay: ITC; linked PHD-HD1 complex (uncleaved)

B1: H3K4me2 15-mer (histone H3 tail peptide dimethylated at lysine 4) (peptide)
chain: ARTKQTARKSTGGKA
modifications: dimethyl-lysine at K4 (K4me2)
Kd [1]: 7.5 µM
Kd [2]: 7.5 µM
